Experimental findings from PMC7370943 are described below.

Experiment [1] addresses T1, recombinant human IL-33 (human).
T1 sequence (O95760 whole entry, looked up): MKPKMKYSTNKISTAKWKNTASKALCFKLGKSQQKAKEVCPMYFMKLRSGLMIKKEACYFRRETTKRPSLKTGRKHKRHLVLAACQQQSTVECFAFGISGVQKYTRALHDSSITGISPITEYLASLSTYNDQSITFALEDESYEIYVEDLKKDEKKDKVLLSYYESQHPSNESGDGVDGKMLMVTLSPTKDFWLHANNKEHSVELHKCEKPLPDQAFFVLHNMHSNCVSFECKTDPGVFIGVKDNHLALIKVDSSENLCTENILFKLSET

Experiment [2] has as its target recombinant human IL-13 (human) (UniProt P35225).
Chain of UniProt P35225 (P35225 25-146): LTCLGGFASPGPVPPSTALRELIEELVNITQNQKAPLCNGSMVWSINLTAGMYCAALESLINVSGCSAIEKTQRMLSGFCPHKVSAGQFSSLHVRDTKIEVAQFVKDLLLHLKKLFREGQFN

As for “human IL-33trap with 7xGGS linker and human IgG1 Fc (from UniProt Q9NPH3 21-367; Q01638 19-328) (Fc fusion)”, the IC50 of inhibition of IL-33-induced NF-κB luciferase reporter activity in HEK293T cells transfected with human ST2; IL-33 pre-incubated 30 min with the trap (blocks IL-33 acting on ST2 of the cells) in experiment [1] came out at 67 pM. Turning to “human IL-4/13trap (from UniProt P78552 22-343; P24394 26-232) (receptor)”, in experiment [2], the IC50 of inhibition of IL-13-induced STAT6-dependent luciferase activity in HEK293T cells transfected with human IL-4Rα and IL-13Rα1; cytokine pre-incubated with the trap is 434 pM. Regarding “human IL-33trap without GGS linker fused to human IgG1 Fc (sIL-1RAcP-sST2-Fc) (from UniProt Q01638 19-328) (Fc fusion)”, in experiment [1], the IC50 of inhibition of IL-33-induced NF-κB luciferase reporter activity in HEK293T cells transfected with human ST2; IL-33 pre-incubated 30 min with the trap (blocks IL-33 acting on ST2 of the cells) is 90 pM. The same measure, in the same setting: with “human IL-33trap with 7xGGS linker (sIL-1RAcP-7xGGS-sST2) (from UniProt Q01638 19-328) (receptor)” the figure was 194 pM; with “human IL-33trap with 12xGGS linker (sIL-1RAcP-12xGGS-sST2) (from UniProt Q01638 19-328) (receptor)”, 42 pM; with “human IL-33trap with 12xGGS linker and human IgG1 Fc (from UniProt Q9NPH3 21-367; Q01638 19-328) (Fc fusion)”, 57 pM. Regarding “human IL-33trap without Fc and GGS linker (sIL-1RAcP-sST2) (from UniProt Q01638 19-328) (receptor)”, the IC50 of inhibition of IL-33-induced NF-κB luciferase reporter activity in HEK293T cells transfected with human ST2; IL-33 pre-incubated 30 min with the trap (blocks IL-33 acting on ST2 of the cells) in experiment [1] was 748 pM.
